Assay [1] has as its target human p97 (melanotransferrin), GPI-anchored membrane form (human) (UniProt P08582). Briefly: FACS on SK-MEL-28 cells; L235 hybridoma supernatant, goat anti-mouse IgG-FITC.
Assay [2] has the same target. Kind of assay: FACS, L235 on SK-MEL-28 cells after PI-PLC treatment, against untreated stained cells.
The target is the same in assay [3]. Kind of assay: FACS, L235 on p97aWTBc3 cells after PI-PLC treatment, against untreated stained cells. In general terms: Flow cytometry measures light scatter and fluorescence of single cells or particles in a stream.
Assay [4] has the same target. Briefly: FACS, L235 on p97aWTBc7 cells after PI-PLC treatment, against untreated stained cells.
Assay [5] has the same target. Briefly: FACS, L235 on SK-MEL-28 cells after Pronase treatment, against untreated stained cells.
The target is the same in assay [6]. Briefly: FACS on Sf9 cells infected with p97 B-1-1, pre-incubated with PI-PLC; L235 supernatant, goat anti-mouse IgG-FITC.
The target is the same in assay [7]. Kind of assay: FACS on Sf9 cells infected with p97 B-2-1, pre-incubated with PI-PLC; L235 supernatant, goat anti-mouse IgG-FITC.
The target is the same in assay [8]. Kind of assay: FACS on Sf9 cells infected with p97 recombinant baculovirus p97 B-1-1; L235 supernatant, goat anti-mouse IgG-FITC.
The target is the same in assay [9]. Kind of assay: FACS on Sf9 cells infected with p97 recombinant baculovirus p97 B-2-1; L235 supernatant, goat anti-mouse IgG-FITC.
For assay [10] the target is unchanged. Kind of assay: FACS on SK-MEL-28 cells pre-incubated with PI-PLC (60 min, 37 C), which removes p97; L235 supernatant, goat anti-mouse IgG-FITC.
Assay [11] concerns the target human transferrin receptor, membrane form (human) (UniProt P02786). Briefly: FACS, OKT9 on SK-MEL-28 cells after PI-PLC treatment, against untreated stained cells.
UniProt P02786, sequence (P02786 whole entry): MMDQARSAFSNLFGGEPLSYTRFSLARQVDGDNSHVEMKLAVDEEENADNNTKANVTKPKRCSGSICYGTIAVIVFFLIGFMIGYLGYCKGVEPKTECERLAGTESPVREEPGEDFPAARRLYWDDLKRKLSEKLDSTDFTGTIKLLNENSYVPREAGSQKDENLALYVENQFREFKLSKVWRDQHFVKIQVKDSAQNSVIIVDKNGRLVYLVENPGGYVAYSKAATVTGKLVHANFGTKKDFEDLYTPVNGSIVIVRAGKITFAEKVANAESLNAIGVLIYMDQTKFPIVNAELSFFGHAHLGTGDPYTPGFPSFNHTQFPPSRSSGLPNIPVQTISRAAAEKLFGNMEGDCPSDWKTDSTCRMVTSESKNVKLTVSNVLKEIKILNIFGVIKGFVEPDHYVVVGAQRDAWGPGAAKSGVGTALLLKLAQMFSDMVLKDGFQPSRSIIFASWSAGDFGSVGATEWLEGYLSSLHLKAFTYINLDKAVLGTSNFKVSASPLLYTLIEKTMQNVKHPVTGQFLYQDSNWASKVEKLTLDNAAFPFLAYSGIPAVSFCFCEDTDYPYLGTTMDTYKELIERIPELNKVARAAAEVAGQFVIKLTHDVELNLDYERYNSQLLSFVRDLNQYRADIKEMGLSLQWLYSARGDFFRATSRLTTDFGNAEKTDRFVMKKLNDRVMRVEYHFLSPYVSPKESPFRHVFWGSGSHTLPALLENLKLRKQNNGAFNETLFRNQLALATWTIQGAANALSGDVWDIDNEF
For assay [12] the target is unchanged. Briefly: FACS, OKT9 on SK-MEL-28 cells after Pronase treatment, against untreated stained cells.
For assay [13], the target named is Thy-1 on EL-4 mouse lymphoma cells (mouse) (UniProt P01831). Briefly: FACS, T24/37.1 on EL-4 cells after PI-PLC treatment, against untreated stained cells.
UniProt P01831, sequence (P01831 20-131): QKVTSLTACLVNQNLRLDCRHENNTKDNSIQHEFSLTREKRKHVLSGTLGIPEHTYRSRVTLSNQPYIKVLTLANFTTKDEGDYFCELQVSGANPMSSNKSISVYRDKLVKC
Assay [14] has the same target. Briefly: FACS, T24/37.1 on EL-4 cells after Pronase treatment, against untreated stained cells.

UniProt P08582, sequence (P08582 20-709): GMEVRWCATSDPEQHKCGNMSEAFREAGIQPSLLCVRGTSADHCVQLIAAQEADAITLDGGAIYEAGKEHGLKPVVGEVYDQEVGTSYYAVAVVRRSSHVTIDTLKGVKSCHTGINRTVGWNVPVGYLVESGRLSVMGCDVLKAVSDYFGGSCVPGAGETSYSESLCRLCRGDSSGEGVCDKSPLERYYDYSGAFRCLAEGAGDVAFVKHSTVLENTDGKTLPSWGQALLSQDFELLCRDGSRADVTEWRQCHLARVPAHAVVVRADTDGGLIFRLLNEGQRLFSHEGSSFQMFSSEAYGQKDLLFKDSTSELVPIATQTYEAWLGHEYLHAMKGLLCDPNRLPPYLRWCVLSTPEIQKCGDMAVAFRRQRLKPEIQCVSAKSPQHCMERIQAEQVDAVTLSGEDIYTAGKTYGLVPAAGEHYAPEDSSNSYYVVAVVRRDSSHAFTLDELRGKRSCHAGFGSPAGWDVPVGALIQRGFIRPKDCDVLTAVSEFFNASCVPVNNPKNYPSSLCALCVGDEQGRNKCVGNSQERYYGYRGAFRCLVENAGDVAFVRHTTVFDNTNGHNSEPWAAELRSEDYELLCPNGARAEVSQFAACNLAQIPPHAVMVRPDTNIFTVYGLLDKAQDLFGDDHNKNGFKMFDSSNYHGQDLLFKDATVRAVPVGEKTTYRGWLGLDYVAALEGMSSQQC

As for L235 anti-human p97 monoclonal antibody, the FLUORESCENCE - converted linear value (converted linear value) in [1] came to 128; in assay [6] it was 5.74; in assay [7] it was 6.85; in assay [8] it was 112; in assay [9] it was 97.4; in [10], 4.52. Moreover, the Fluorescene Intensity (% of Control) is 10.8 % of Control in assay [2], 6.8 % of Control in assay [3], 7.5 % of Control in assay [4] and 82.6 % of Control in assay [5].

Take “OKT9 anti-human transferrin receptor monoclonal antibody”: the Fluorescene Intensity (% of Control) was 120 % of Control in [11] and 15.9 % of Control in [12].

On to T24/37.1 MAb (anti-Thy-1) (antibody), for which the figures for the Fluorescene Intensity (% of Control) in [13] and in [14] were 32.5 % of Control and 136 % of Control, respectively.

These data come from EP1143253A1.
